Experimental data published in patent US20260263599A1 (AUTOLUS, published 2026).

Target: T1, T Cell Receptor Beta Constant 2 (TRBC2) (human, UniProt A0A5B9 1-144, limits assumed)
T1 construct: ELISA antigen; also called TCR beta constant region 2
Assay: ELISA

T1 sequence (A0A5B9 1-144 limits assumed): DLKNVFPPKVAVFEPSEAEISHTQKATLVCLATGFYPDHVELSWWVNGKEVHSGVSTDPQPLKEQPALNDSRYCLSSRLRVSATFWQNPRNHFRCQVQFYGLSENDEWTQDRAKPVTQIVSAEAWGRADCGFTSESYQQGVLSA

Binder | binding result
Jovi Hum 8 (antibody, V domains shown, also called H-AF 1; humanised antibody with H-AF062256 VH and 3aaz VL) VH: QVQLVQSGAEVKKPGASVKVSCKASGYTFTGYVMHWVRQAPGQGLEWMGFINPYNDDIQSNERFRGRVTMTRDTSISTAYMELSRLRSDDTAVYYCARGAGYNFDGAYRFFDFWGQGTMVTVSS VL: DIVMTQSPLSLPVTPGEPASISCRSSQRLVHSNGNTYLHWYLQKPGQSPRLLIYRVSNRFPGVPDRFSGSGSGTDFTLKISRVEAEDVGVYYCSQSTHVPYTFGQGTKLEIK | no binding
Jovi Hum 27 (antibody, V domains shown, also called H-AF 13) VH: QVQLVQSGAEVKKPGASVKMSCKASGYTFTGYVMHWVRQAPGQGLEWIGFINPYNDDIQSNERFRGRVTMTRDTSISTAYMELSRLRSDDTAVYYCARGAGYNFDGAYRFFDFWGQGTMVTVSS VL: DIVMTQSPLSLPVTPGEPASISCRSSQRLVHSNGNTYLHWYLQKPGQSPRLLIYRVSNRFPGVPDRFSGSGSGTDFTLKISRVEAEDVGVYYCSQSTHVPYTFGQGTKLEIK | no binding
Jovi Hum 18 (antibody, V domains shown, also called H-AF 4) VH: QVQLVQSGAEVKKPGASVKVSCKASGYTFTGYVMHWVRQAPGQGLEWMGFINPYNDDIQSNERFRGRVTMTSDKSISTAYMELSRLRSDDTAVYYCARGAGYNFDGAYRFFDFWGQGTMVTVSS VL: DIVMTQSPLSLPVTPGEPASISCRSSQRLVHSNGNTYLHWYLQKPGQSPRLLIYRVSNRFPGVPDRFSGSGSGTDFTLKISRVEAEDVGVYYCSQSTHVPYTFGQGTKLEIK | no binding
Jovi Hum 21 (antibody, V domains shown, also called H-AF 7) VH: QVQLVQSGAEVKKPGASVKVSCKASGYTFTGYVMHWVRQAPGQGLEWIGFINPYNDDIQSNERFRGRVTMTSDTSISTAYMELSRLRSDDTAVYYCARGAGYNFDGAYRFFDFWGQGTMVTVSS VL: DIVMTQSPLSLPVTPGEPASISCRSSQRLVHSNGNTYLHWYLQKPGQSPRLLIYRVSNRFPGVPDRFSGSGSGTDFTLKISRVEAEDVGVYYCSQSTHVPYTFGQGTKLEIK | no binding

Other lines, results leading:

binding result | Binder
no binding | Jovi Hum 17 (antibody, V domains shown, also called H-AF 3) VH: QVQLVQSGAEVKKPGASVKVSCKASGYTFTGYVMHWVRQAPGQGLEWMGFINPYNDDIQSNERFRGRVTMTSDTSISTAYMELSRLRSDDTAVYYCARGAGYNFDGAYRFFDFWGQGTMVTVSS VL: DIVMTQSPLSLPVTPGEPASISCRSSQRLVHSNGNTYLHWYLQKPGQSPRLLIYRVSNRFPGVPDRFSGSGSGTDFTLKISRVEAEDVGVYYCSQSTHVPYTFGQGTKLEIK
no binding | Jovi Hum 20 (antibody, V domains shown, also called H-AF 6) VH: QVQLVQSGAEVKKPGASVKVSCKASGYTFTGYVMHWVRQAPGQGLEWIGFINPYNDDIQSNERFRGRVTMTRDKSISTAYMELSRLRSDDTAVYYCARGAGYNFDGAYRFFDFWGQGTMVTVSS VL: DIVMTQSPLSLPVTPGEPASISCRSSQRLVHSNGNTYLHWYLQKPGQSPRLLIYRVSNRFPGVPDRFSGSGSGTDFTLKISRVEAEDVGVYYCSQSTHVPYTFGQGTKLEIK
no binding | Jovi Hum 16 (antibody, V domains shown, also called H-AF 2) VH: QVQLVQSGAEVKKPGASVKVSCKASGYTFTGYVMHWVRQAPGQGLEWMGFINPYNDDIQSNERFRGRVTMTRDKSISTAYMELSRLRSDDTAVYYCARGAGYNFDGAYRFFDFWGQGTMVTVSS VL: DIVMTQSPLSLPVTPGEPASISCRSSQRLVHSNGNTYLHWYLQKPGQSPRLLIYRVSNRFPGVPDRFSGSGSGTDFTLKISRVEAEDVGVYYCSQSTHVPYTFGQGTKLEIK
no binding | Jovi Hum 19 (antibody, V domains shown, also called H-AF 5) VH: QVQLVQSGAEVKKPGASVKVSCKASGYTFTGYVMHWVRQAPGQGLEWIGFINPYNDDIQSNERFRGRVTMTRDTSISTAYMELSRLRSDDTAVYYCARGAGYNFDGAYRFFDFWGQGTMVTVSS VL: DIVMTQSPLSLPVTPGEPASISCRSSQRLVHSNGNTYLHWYLQKPGQSPRLLIYRVSNRFPGVPDRFSGSGSGTDFTLKISRVEAEDVGVYYCSQSTHVPYTFGQGTKLEIK
no binding | Jovi Hum 26 (antibody, V domains shown, also called H-AF 12) VH: QVQLVQSGAEVKKPGASVKMSCKASGYTFTGYVMHWVRQAPGQGLEWMGFINPYNDDIQSNERFRGRVTMTSDKSISTAYMELSRLRSDDTAVYYCARGAGYNFDGAYRFFDFWGQGTMVTVSS VL: DIVMTQSPLSLPVTPGEPASISCRSSQRLVHSNGNTYLHWYLQKPGQSPRLLIYRVSNRFPGVPDRFSGSGSGTDFTLKISRVEAEDVGVYYCSQSTHVPYTFGQGTKLEIK
